Test results published in paper PMC7550751, “Application of Force to a Syndecan-4 Containing Complex With Thy-1–αVβ3 Integrin Accelerates Neurite Retraction” (Frontiers in Molecular Biosciences, 2020).

T1: Commercially purified human Syndecan (ectodomain)-4-Fc, P31431
T1 chain: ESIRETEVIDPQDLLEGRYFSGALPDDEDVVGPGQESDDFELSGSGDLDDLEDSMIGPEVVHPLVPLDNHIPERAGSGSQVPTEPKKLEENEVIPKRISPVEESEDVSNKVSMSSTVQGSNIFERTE

T2: Thy-1-Fc wild type (UniProt P01831 20-131)
T2 construct: In the functional rows m1 stands for Thy-1 on the surface of CAD neuronal cells; also called Thy-1(RLD)-Fc; CD90; source: purified; obtained as previously reported (Schneider, 2000; Leyton et al., 2001)
T2 sequence (looked up): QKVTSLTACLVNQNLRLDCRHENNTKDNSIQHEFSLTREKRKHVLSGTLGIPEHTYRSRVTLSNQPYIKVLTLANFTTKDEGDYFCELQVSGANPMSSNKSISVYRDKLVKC


How the values were obtained:
[1] = target: Commercially purified human Syndecan (ectodomain)-4-Fc (UniProt P31431); assay: optical tweezers (miniTweezers) force-ramp adhesion frequency assay; conditions: loading rate 10 pN/s; Hepes buffer (10 mM Hepes, pH 7.4) containing 100 mM NaCl and 1 mM MgCl2 at 25°C; parent: est. 0.79; read off a plot
[2] = target: T1, Commercially purified human Syndecan …; assay: as above; conditions: chain shown with the change; loading rate 10 pN/s; Hepes buffer (10 mM Hepes, pH 7.4) containing 100 mM NaCl and 1 mM MgCl2 at 25°C; parent: est. 0.79; read off a plot
[3] = target: T2, Thy-1-Fc wild type; assay: optical tweezers force spectroscopy (constant-force bond lifetime assay); miniTweezers; Thy-1-Fc on the 2.1 μm bead held by a micropipette; αVβ3-Fc, Syndecan-4-Fc or both on the 3.1 μm trapped bead (controls with TRAIL-R2-Fc added); constant forces 10, 20, 30, 40 and 50 pN; lifetimes fitted to the Bell model for values at zero force; 10 mM Hepes pH 7.4, 100 mM NaCl, 1 mM MgCl2, 25°C; conditions: both partners purified

Molecule	bond lifetime at zero force (τ0) [3] [s]	other results
Thy-1-Fc wild type (from UniProt P01831) AEAAA	–	other: adhesion frequency [1]: 0.4
Thy-1-Fc wild type, P01831 RLE (protein) QKVTSLTACLVNQNLRLECRHENNTKDNSIQHEFSLTREKRKHVLSGTLGIPEHTYRSRVTLSNQPYIKVLTLANFTTKDEGDYFCELQVSGANPMSSNKSISVYRDKLVKC	–	other: adhesion frequency [2]: 0.81
Recombinant αVβ3-Fc integrin (Fc fusion, integrin αV, ectodomain; integrin β3, ectodomain; Construct: Burgos-Bravo et al., 2018; also called αVβ3 integrin; source: HEK293T, transiently transfected, secreted into serum-free medium; purified as published (Burgos-Bravo et al., 2018) for optical tweezers; used as medium in the neurite retraction assay) chain 1: FNLDVDSPAEYSGPEGSYFGFAVDFFVPSASSRMFLLVGAPKANTTQPGIVEGGQVLKCDWSSTRRCQPIEFDATGNRDYAKDDPLEFKSHQWFGASVRSKQDKILACAPLYHWRTEMKQEREPVGTCFLQDGTKTVEYAPCRSQDIDADGQGFCQGGFSIDFTKADRVLLGGPGSFYWQGQLISDQVAEIVSKYDPNVYSIKYNNQLATRTAQAIFDDSYLGYSVAVGDFNGDGIDDFVSGVPRAARTLGMVYIYDGKNMSSLYNFTGEQMAAYFGFSVAATDINGDDYADVFIGAPLFMDRGSDGKLQEVGQVSVSLQRASGDFQTTKLNGFEVFARFGSAIAPLGDLDQDGFNDIAIAAPYGGEDKKGIVYIFNGRSTGLNAVPSQILEGQWAARSMPPSFGYSMKGATDIDKNGYPDLIVGAFGVDRAILYRARPVITVNAGLEVYPSILNQDNKTCSLPGTALKVSCFNVRFCLKADGKGVLPRKLNFQVELLLDKLKQKGAIRRALFLYSRSPSHSKNMTISRGGLMQCEELIAYLRDESEFRDKLTPITIFMEYRLDYRTAADTTGLQPILNQFTPANISRQAHILLDCGEDNVCKPKLEVSVDSDQKKIYIGDDNPLTLIVKAQNQGEGAYEAELIVSIPLQADFIGVVRNNEALARLSCAFKTENQTRQVVCDLGNPMKAGTQLLAGLRFSVHQQSEMDTSVKFDLQIQSSNLFDKVSPVVSHKVDLAVLAAVEIRGVSSPDHVFLPIPNWEHKENPETEEDVGPVVQHIYELRNNGPSSFSKAMLHLQWPYKYNNNTLLYILHYDIDGPMNCTSDMEINPLRIKISSLQTTEKNDTVAGQGERDHLITKRDLALSEGDIHTLGCGVAQCLKIVCQVGRLDRGKSAILYVKSLLWTETFMNKENQNHSYSLKSSASFNVIEFPYKNLPIEDITNSTLVTTNVTWGIQPAPMPV chain 2: GPNICTTRGVSSCQQCLAVSPMCAWCSDEALPLGSPRCDLKENLLKDNCAPESIEFPVSEARVLEDRPLSDKGSGDSSQVTQVSPQRIALRLRPDDSKNFSIQVRQVEDYPVDIYYLMDLSYSMKDDLWSIQNLGTKLATQMRKLTSNLRIGFGAFVDKPVSPYMYISPPEALENPCYDMKTTCLPMFGYKHVLTLTDQVTRFNEEVKKQSVSRNRDAPEGGFDAIMQATVCDEKIGWRNDASHLLVFTTDAKTHIALDGRLAGIVQPNDGQCHVGSDNHYSASTTMDYPSLGLMTEKLSQKNINLIFAVTENVVNLYQNYSELIPGTTVGVLSMDSSNVLQLIVDAYGKIRSKVELEVRDLPEELSLSFNATCLNNEVIPGLKSCMGLKIGDTVSFSIEAKVRGCPQEKEKSFTIKPVGFKDSLIVQVTFDCDCACQAQAEPNSHRCNNGNGTFECGVCRCGPGWLGSQCECSEEDYRPSQQDECSPREGQPVCSQRGECLCGQCVCHSSDFGKITGKYCECDDFSCVRYKGEMCSGHGQCSCGDCLCDSDWTGYYCNCTTRTDTCMSSNGLLCSGRGKCECGSCVCIQPGSYGDTCEKCPTCPDACTFKKECVECKKFDRGALHDENTCNRYCRDEIESVKELKDTGKDAVNCTYKNEDDCVVRFQYYEDSSGKSILYVVEEPECPKGPD	6.79 ± 1.49	–

Continued, in another order:

bond lifetime at zero force (τ0) [3] [s]	Molecule	other results
3.06 ± 0.22	Commercially purified human Syndecan (ectodomain)-4-Fc (Fc fusion, UniProt P31431 19-145, looked up, Syndecan-4, human, ectodomain; Heparan sulfate proteoglycan; also called Syndecan-4-Fc; Synd-4-Fc) ESIRETEVIDPQDLLEGRYFSGALPDDEDVVGPGQESDDFELSGSGDLDDLEDSMIGPEVVHPLVPLDNHIPERAGSGSQVPTEPKKLEENEVIPKRISPVEESEDVSNKVSMSSTVQGSNIFERTE	–
11.6 ± 1.34	αVβ3-Fc + Syndecan-4-Fc (both on one bead) (complex, integrin αV, ectodomain, as in m5; integrin β3, ectodomain, as in m5; Syndecan-4, human, ectodomain, as in m6; Not a complex formed beforehand: m5 and m6 were put together on bead 2 and met Thy-1-Fc on bead 1; also called αVβ3 integrin + Syndecan-4; source: αVβ3-Fc: HEK293T, purified; Syndecan-4-Fc: commercially purified; both attached to one protein G-coated bead; copies: + +) chain 1: FNLDVDSPAEYSGPEGSYFGFAVDFFVPSASSRMFLLVGAPKANTTQPGIVEGGQVLKCDWSSTRRCQPIEFDATGNRDYAKDDPLEFKSHQWFGASVRSKQDKILACAPLYHWRTEMKQEREPVGTCFLQDGTKTVEYAPCRSQDIDADGQGFCQGGFSIDFTKADRVLLGGPGSFYWQGQLISDQVAEIVSKYDPNVYSIKYNNQLATRTAQAIFDDSYLGYSVAVGDFNGDGIDDFVSGVPRAARTLGMVYIYDGKNMSSLYNFTGEQMAAYFGFSVAATDINGDDYADVFIGAPLFMDRGSDGKLQEVGQVSVSLQRASGDFQTTKLNGFEVFARFGSAIAPLGDLDQDGFNDIAIAAPYGGEDKKGIVYIFNGRSTGLNAVPSQILEGQWAARSMPPSFGYSMKGATDIDKNGYPDLIVGAFGVDRAILYRARPVITVNAGLEVYPSILNQDNKTCSLPGTALKVSCFNVRFCLKADGKGVLPRKLNFQVELLLDKLKQKGAIRRALFLYSRSPSHSKNMTISRGGLMQCEELIAYLRDESEFRDKLTPITIFMEYRLDYRTAADTTGLQPILNQFTPANISRQAHILLDCGEDNVCKPKLEVSVDSDQKKIYIGDDNPLTLIVKAQNQGEGAYEAELIVSIPLQADFIGVVRNNEALARLSCAFKTENQTRQVVCDLGNPMKAGTQLLAGLRFSVHQQSEMDTSVKFDLQIQSSNLFDKVSPVVSHKVDLAVLAAVEIRGVSSPDHVFLPIPNWEHKENPETEEDVGPVVQHIYELRNNGPSSFSKAMLHLQWPYKYNNNTLLYILHYDIDGPMNCTSDMEINPLRIKISSLQTTEKNDTVAGQGERDHLITKRDLALSEGDIHTLGCGVAQCLKIVCQVGRLDRGKSAILYVKSLLWTETFMNKENQNHSYSLKSSASFNVIEFPYKNLPIEDITNSTLVTTNVTWGIQPAPMPV chain 2: GPNICTTRGVSSCQQCLAVSPMCAWCSDEALPLGSPRCDLKENLLKDNCAPESIEFPVSEARVLEDRPLSDKGSGDSSQVTQVSPQRIALRLRPDDSKNFSIQVRQVEDYPVDIYYLMDLSYSMKDDLWSIQNLGTKLATQMRKLTSNLRIGFGAFVDKPVSPYMYISPPEALENPCYDMKTTCLPMFGYKHVLTLTDQVTRFNEEVKKQSVSRNRDAPEGGFDAIMQATVCDEKIGWRNDASHLLVFTTDAKTHIALDGRLAGIVQPNDGQCHVGSDNHYSASTTMDYPSLGLMTEKLSQKNINLIFAVTENVVNLYQNYSELIPGTTVGVLSMDSSNVLQLIVDAYGKIRSKVELEVRDLPEELSLSFNATCLNNEVIPGLKSCMGLKIGDTVSFSIEAKVRGCPQEKEKSFTIKPVGFKDSLIVQVTFDCDCACQAQAEPNSHRCNNGNGTFECGVCRCGPGWLGSQCECSEEDYRPSQQDECSPREGQPVCSQRGECLCGQCVCHSSDFGKITGKYCECDDFSCVRYKGEMCSGHGQCSCGDCLCDSDWTGYYCNCTTRTDTCMSSNGLLCSGRGKCECGSCVCIQPGSYGDTCEKCPTCPDACTFKKECVECKKFDRGALHDENTCNRYCRDEIESVKELKDTGKDAVNCTYKNEDDCVVRFQYYEDSSGKSILYVVEEPECPKGPD chain 3: ESIRETEVIDPQDLLEGRYFSGALPDDEDVVGPGQESDDFELSGSGDLDDLEDSMIGPEVVHPLVPLDNHIPERAGSGSQVPTEPKKLEENEVIPKRISPVEESEDVSNKVSMSSTVQGSNIFERTE	–
